The target in assay [1] is T1, human PD-L1/His fusion protein (human, UniProt Q9NZQ7 19-239). Put plainly: BLI off-rate; test group 3. As to the method: (§1) Briefly, antibodies were characterized for affinities and binding kinetics by Octet®RED96 biolayer interferometry (Pall ForteBio LLC). Antibodies were captured by Anti-hIgG Fc Capture (AHC) Biosensors (Pall) at a concentration of 100 nM for 30 seconds. Sensors were then dipped into running buffer (1×pH 7.2 PBS, 0.05% Tween 20, 0.1% BSA) for 60 seconds to check baseline. Binding was measured by dipping sensors into a single concentration of recombinant human PD-L1/His fusion protein (Novoprotein). Dissociation was followed by dipping sensors into running buffer for 1200 seconds. The association and dissociation curves were fitted to a 1:1 Langmuir binding model using ForteBio Data Analysis software (Pall). […] The off-rate ratio serves as a data normalization. Accordingly, in each test group, the off-rate ratios of the humanized antibodies can be compared with that of the chimeric antibody, and the off-rate ratios of each of the humanized antibodies can be compared to one another within all test groups.
T1 sequence (Q9NZQ7 19-239 limits assumed): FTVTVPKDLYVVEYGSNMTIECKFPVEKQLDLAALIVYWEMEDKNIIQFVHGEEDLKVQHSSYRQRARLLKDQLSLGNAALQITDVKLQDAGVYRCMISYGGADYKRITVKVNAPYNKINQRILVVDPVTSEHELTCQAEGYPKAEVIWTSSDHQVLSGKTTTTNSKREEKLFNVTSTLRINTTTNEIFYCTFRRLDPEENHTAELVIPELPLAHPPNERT

The target of assay [2] is T1, human PD-L1/His fusion protein. Put plainly: BLI Octet RED96, antibody on AHC sensor, single conc. PD-L1/His; test group 3. As to the method: as §1
Assay [3] shares this target. Put plainly: BLI off-rate; test group 2. The procedure:
as §1

For assay [4] the target is unchanged. In words: BLI Octet RED96, antibody on AHC sensor, single conc. PD-L1/His; test group 2. As to the method: as §1

B1: HuEM0005-87-18 (antibody, human IgG1, V domains shown)
VH: EVQLVQSGAEVKKPGASVKVSCKASGYTFTDYYINWVRQAPGQGLEWIGETIPNTGGTTYNQKFKARVTLTVDKSTSTVYMELSSLRSEDTAVYYCARYQSGSPFAYWGQGTTVTVSS
VL: EIVMTQSPATLSVSPGERATLSCKASQNVGTAVAWYQQKPGQAPRLLIYSASNRYTGVPDRFTGSGSGTEFTLTISSLQSEDFAVYYCQQHYSTPYTFGGGTKLEIK
As for B1, the “Off-Rate Ratio to that of EM0005-87c” value in assay [1] worked out at 75%. The koff in assay [2] turned out to be 0.00101 s⁻¹.

B2: HuEM0005-87-14 (antibody, human IgG1, V domains shown)
VH: EVQLVQSGAEVKKPGASVKVSCKASGYSFTDYYINWVRQAPGQGLEWIGETIPNTGGTTYNQKFKAKATLTVDKSTSTAYMELSSLRSEDTAVYYCARYQSGSPFAYWGQGTTVTVSS
VL: EIVMTQSPATLSVSPGERATLSCKASQNVGTAVAWYQQKPGQAPRLLIYSASNRYTGVPARFSGSGSGTEFTLTISSLQSEDFAVYYCQQHYSTPYTFGGGTKLEIK
In the case of B2, in assay [1], the “Off-Rate Ratio to that of EM0005-87c” value was found to be 80%. Moreover, the koff in assay [2] was 0.00108 s⁻¹.

B3: HuEM0005-87-9 (antibody, human IgG1, V domains shown)
VH: EVQLVQSGAEVKKPGASVKVSCKASGYSFTDYYINWVRQAPGQGLEWIGETIPNTGGTTYNQKFKAKATLTVDKSTSTAYMELSSLRSEDTAVYYCARYQSGSPFAYWGQGTTVTVSS
VL: EIVMTQSPATLSVSPGERATLSCKASQNVGTAVAWYQQKPGQAPRLLIYSASNRYTGIPARFSGSGSGTEFTLTISSLQSEDFAVYYCQQHYSTPYTFGGGTKLEIK
Consider B3, for which, in assay [3], the “Off-Rate Ratio to that of EM0005-87c” value worked out at 84%. In assay [4], this molecule showed a koff of 0.000878 s⁻¹.

B4: HuEM0005-87-15 (antibody, human IgG1, V domains shown)
VH: EVQLVQSGAEVKKPGASVKVSCKASGYSFTDYYINWVKQAPGQGLEWIGETIPNTGGTTYNQKFKAKATLTRDKSTSTAYMELKSLRSEDTAVYYCARYQSGSPFAYWGQGTTVTVSS
VL: EIVMTQSPATLSVSPGERATLSCKASQNVGTAVAWYQQKPGQAPRLLIYSASNRYTGVPARFSGSGSGTEFTLTISSLQSEDFAVYYCQQHYSTPYTFGGGTKLEIK
On to B4, for which the “Off-Rate Ratio to that of EM0005-87c” value in assay [1] was 96%. The koff in assay [2] was 0.00129 s⁻¹.

B5: HuEM0005-87-13 (antibody, human IgG1, V domains shown)
VH: EVQLVQSGAEVKKPGASVKVSCKASGYTFTDYYINWVRQAPGQGLEWIGETIPNTGGTTYNQKFKARVTLTVDKSTSTVYMELSSLRSEDTAVYYCARYQSGSPFAYWGQGTTVTVSS
VL: EIVMTQSPATLSVSPGERATLSCKASQNVGTAVAWYQQKPGQAPRLLIYSASNRYTGVPARFSGSGSGTEFTLTISSLQSEDFAVYYCQQHYSTPYTFGGGTKLEIK
As for B5, the “Off-Rate Ratio to that of EM0005-87c” value in assay [1] worked out at 74%. Also, the koff in assay [2] worked out at 0.001 s⁻¹.

B6: HuEM0005-87-11 (antibody, human IgG1, V domains shown)
VH: EVQLVQSGAEVKKPGASVKVSCKASGYTFTDYYINWVRQAPGQGLEWMGETIPNTGGTTYNQKFKARVTMTVDTSTSTVYMELSSLRSEDTAVYYCARYQSGSPFAYWGQGTTVTVSS
VL: EIVMTQSPATLSVSPGERATLSCKASQNVGTAVAWYQQKPGQAPRLLIYSASNRYTGVPARFSGSGSGTEFTLTISSLQSEDFAVYYCQQHYSTPYTFGGGTKLEIK
notes: also called HuEM0005-87-l l
On to B6, for which the “Off-Rate Ratio to that of EM0005-87c” value in assay [3] was determined as 74%. Besides, the off-rate constant (koff) in assay [4] was 0.000769 s⁻¹.

B7: HuEM0005-87-10 (antibody, human IgG1, V domains shown)
VH: EVQLVQSGAEVKKPGASVKVSCKASGYSFTDYYINWVKQAPGQGLEWIGETIPNTGGTTYNQKFKAKATLTRDKSTSTAYMELKSLRSEDTAVYYCARYQSGSPFAYWGQGTTVTVSS
VL: EIVMTQSPATLSVSPGERATLSCKASQNVGTAVAWYQQKPGQAPRLLIYSASNRYTGIPARFSGSGSGTEFTLTISSLQSEDFAVYYCQQHYSTPYTFGGGTKLEIK
As for B7, the “Off-Rate Ratio to that of EM0005-87c” value in assay [3] stood at 96%. Moreover, in assay [4], the off-rate constant (koff) was 0.000994 s⁻¹.

B8: HuEM0005-87-12 (antibody, human IgG1, V domains shown)
VH: EVQLVQSGAEVKKPGASVKVSCKASGYTFTDYYINWVRQAPGQGLEWMGETIPNTGGTTYNQKFKARVTLTVDTSTSTVYMELSSLRSEDTAVYYCARYQSGSPFAYWGQGTTVTVSS
VL: EIVMTQSPATLSVSPGERATLSCKASQNVGTAVAWYQQKPGQAPRLLIYSASNRYTGVPARFSGSGSGTEFTLTISSLQSEDFAVYYCQQHYSTPYTFGGGTKLEIK
With B8, the “Off-Rate Ratio to that of EM0005-87c” value in assay [3] amounted to 77%. The same molecule came in with a koff in assay [4] of 0.000798 s⁻¹.

B9: HuEM0005-90-7 (antibody, human IgG1, V domains shown)
VH: EVQLVQSGAEVKKPGASVKVSCKTSGYTFTSHSINWVRQATGQGLEWMGYMYIGNGYTEYNEKFKGRVTMTSNTSISTAYMELSSLRSEDTAVYYCAKITPVVAPYVMDYWGQGTSVTVSS
VL: DIQMTQSPSFLSASVGDRVTITCKASQDVGTAVAWYQQKPGKAPKLLIYWASTRHTGVPSRFSGSGSGTEFTLTISSLQPEDFATYYCQQYSSYPYTFGQGTKLEIK
In the case of B9, the “Off-Rate Ratio to that of EM0005-90c” value in assay [3] was determined as 135%. In assay [4], this molecule returned an off-rate constant (koff) of 0.00046 s⁻¹.

B10: HuEM0005-90-8 (antibody, human IgG1, V domains shown)
VH: EVQLVQSGAEVKKPGASVKVSCKTSGYTFTSHSINWVRQATGQGLEWIGYMYIGNGYTEYNEKFKGRATLTSNTSISTAYMELSSLRSEDTAVYYCAKITPVVAPYVMDYWGQGTSVTVSS
VL: DIQMTQSPSFLSASVGDRVTITCKASQDVGTAVAWYQQKPGKAPKLLIYWASTRHTGVPSRFSGSGSGTEFTLTISSLQPEDFATYYCQQYSSYPYTFGQGTKLEIK
Take B10: in assay [3], the “Off-Rate Ratio to that of EM0005-90c” value was 102%. This molecule gave a koff in assay [4] of 0.000349 s⁻¹.

B11: HuEM0005-90-11 (antibody, human IgG1, V domains shown)
VH: EVQLVQSGAEVKKPGASVKVSCKTSGYTFTSHSINWVRQATGQGLEWMGYMYIGNGYTEYNEKFKGRVTMTSNTSISTAYMELSSLRSEDTAVYYCAKITPVVAPYVMDYWGQGTSVTVSS
VL: DIVMTQSPSFLSASVGDRVTITCKASQDVGTAVAWYQQKPGKAPKLLIYWASTRHTGVPSRFSGSGSGTDFTLTISSLQPEDFATYYCQQYSSYPYTFGQGTKLEIK
For the molecule B11, in assay [3], the “Off-Rate Ratio to that of EM0005-90c” value came out at 121%. In assay [4], this molecule returned a koff of 0.000414 s⁻¹.

B12: HuEM0005-90-9 (antibody, human IgG1, V domains shown)
VH: EVQLVQSGAEVKKPGASVKVSCKASGYTFTSHSINWVRQATGQGLEWMGYMYIGNGYTEYNEKFKGRVTLTSNTSISTAYMELSSLRSEDTAVYYCAKITPVVAPYVMDYWGQGTSVTVSS
VL: DIVMTQSPSFLSASVGDRVTITCKASQDVGTAVAWYQQKPGKAPKLLIYWASTRHTGVPSRFSGSGSGTDFTLTISSLQPEDFATYYCQQYSSYPYTFGQGTKLEIK
Take B12: the “Off-Rate Ratio to that of EM0005-90c” value in assay [3] amounted to 109%. Moreover, in assay [4], the koff is 0.000373 s⁻¹.

B13: HuEM0005-90-12 (antibody, human IgG1, V domains shown)
VH: EVQLVQSGAEVKKPGASVKVSCKTSGYTFTSHSINWVRQATGQGLEWIGYMYIGNGYTEYNEKFKGRATLTSNTSISTAYMELSSLRSEDTAVYYCAKITPVVAPYVMDYWGQGTSVTVSS
VL: DIVMTQSPSFLSASVGDRVTITCKASQDVGTAVAWYQQKPGKAPKLLIYWASTRHTGVPSRFSGSGSGTDFTLTISSLQPEDFATYYCQQYSSYPYTFGQGTKLEIK
As to B13, the “Off-Rate Ratio to that of EM0005-90c” value in assay [3] turned out to be 100%. Moreover, the koff in assay [4] was 0.000342 s⁻¹.

B14: HuEM0005-90-10 (antibody, human IgG1, V domains shown)
VH: EVQLVQSGAEVKKPGASVKVSCKASGYTFTSHSINWVRQATGQGLEWIGYMYIGNGYTEYNEKFKGRATLTSNTSISTAYMELSSLRSEDTAVYYCAKITPVVAPYVMDYWGQGTSVTVSS
VL: DIVMTQSPSFLSASVGDRVTITCKASQDVGTAVAWYQQKPGKAPKLLIYWASTRHTGVPSRFSGSGSGTDFTLTISSLQPEDFATYYCQQYSSYPYTFGQGTKLEIK
Consider B14, for which the “Off-Rate Ratio to that of EM0005-90c” value in assay [3] is 91%. This molecule also gave a koff in assay [4] of 0.00031 s⁻¹.

The values are drawn from patent US20230242675A1 (SHANGHAI EPIMAB BIOTHERAPEUTICS, published 2023).
